Square brackets hold non-standard residues; d marks the D form. Ends that are not written are not given here. pS = N[C@@H](COP(=O)(O)O)C(=O)O; FAM = 5,6-carboxyfluorescein
How the values were obtained:
[1] = biological target: 2xpS2pS5 CTD diheptapeptide, Atto-488 labeled; assay: fluorescence correlation spectroscopy (FCS); 15 nM Atto-488 labeled peptide with 40-0.2 µM SPOC, 20 °C; molar masses from diffusion times
[2] = biological target: 2xpS2 CTD diheptapeptide, Atto-488 labeled; assay: as above
[3] = biological target: T1, 2xpS2pS7 CTD diheptapeptide, FAM-labeled; assay: fluorescence polarisation; fluorescence anisotropy; 10 nM FAM-labeled CTD peptide titrated with SPOC protein; 20 °C, 25 mM Tris-Cl pH 8, 25 mM NaCl, 1 mM DTT; one site saturation with non-specific binding model
T1 construct: CTD diheptapeptide: two heptarepeats (Y1S2P3T4S5P6S7) of the C-terminal domain of RPB1, the largest Pol II subunit; source: synthetic peptide (Clonestar)
T1 peptide: {FAM}-Y[pS]PTSP[pS]Y[pS]PTSP[pS]

[4] = biological target: T2, 2xpS2 CTD diheptapeptide, FAM-labeled; assay: as above
T2 construct: CTD diheptapeptide: two heptarepeats (Y1S2P3T4S5P6S7) of the C-terminal domain of RPB1, the largest Pol II subunit; source: synthetic peptide (Clonestar)
T2 peptide: {FAM}-Y[pS]PTSPSY[pS]PTSPS

[5] = biological target: T3, 2xpS2pS5 CTD diheptapeptide, FAM-labeled; assay: as above
T3 construct: CTD diheptapeptide: two heptarepeats (Y1S2P3T4S5P6S7) of the C-terminal domain of RPB1, the largest Pol II subunit; source: synthetic peptide (Clonestar)
T3 peptide: {FAM}-Y[pS]PT[pS]PSY[pS]PT[pS]PS

[6] = biological target: 2xpS7 CTD diheptapeptide, FAM-labeled; assay: as above
[7] = biological target: 2xpS5 CTD diheptapeptide, FAM-labeled; assay: as above
[8] = biological target: T4, PHF3 SPOC R1248A mutant (human, UniProt Q92576 1199-1356, R1248A); assay: FP; 25 mM NaCl
T4 sequence: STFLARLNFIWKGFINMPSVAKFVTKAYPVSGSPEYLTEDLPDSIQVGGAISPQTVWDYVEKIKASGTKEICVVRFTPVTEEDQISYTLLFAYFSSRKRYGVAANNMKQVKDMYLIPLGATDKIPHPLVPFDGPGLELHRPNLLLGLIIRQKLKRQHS

[9] = biological target: T5, PHF3 SPOC domain (1199-1356aa), bacterially expressed (human, UniProt Q92576 1199-1356); assay: FP; 100 mM NaCl
T5 chain: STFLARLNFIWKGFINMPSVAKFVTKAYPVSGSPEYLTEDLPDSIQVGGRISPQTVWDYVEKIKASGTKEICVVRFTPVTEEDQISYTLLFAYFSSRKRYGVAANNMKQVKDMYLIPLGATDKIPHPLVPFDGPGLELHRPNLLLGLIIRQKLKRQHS

## PHF3 SPOC domain (1199-1356aa), bacterially expressed (from UniProt Q92576 1199-1356) (domain or fragment)
[1]
  stoichiometry N: 1
[2]
  stoichiometry N: 1
[3]
  Kd: 0.8 µM
[4]
  Kd: 1.6 µM
[5]
  Kd: 4.8 µM
[6]
  Kd: 26 µM
[7]
  Kd: 20 µM

## {FAM}-YSPT[pS]PSYSPT[pS]PS [2xpS5 CTD diheptapeptide, FAM-labeled]
[8]
  Kd: 22.3 µM

## {FAM}-Y[pS]PT[pS]PSY[pS]PT[pS]PS [2xpS2pS5 CTD diheptapeptide, FAM-labeled]
[8]
  Kd: 48.3 µM

## {FAM}-Y[pS]PTSPSY[pS]PTSPS [2xpS2 CTD diheptapeptide, FAM-labeled]
[9]
  Kd: 1.4 µM

B1: PHF3 SPOC R1248A mutant (domain or fragment, human, UniProt Q92576 1199-1356, looked up)
chain: STFLARLNFIWKGFINMPSVAKFVTKAYPVSGSPEYLTEDLPDSIQVGGAISPQTVWDYVEKIKASGTKEICVVRFTPVTEEDQISYTLLFAYFSSRKRYGVAANNMKQVKDMYLIPLGATDKIPHPLVPFDGPGLELHRPNLLLGLIIRQKLKRQHS
notes: Expression, purification and tag cleavage are told only for SPOC in general; source: E. coli Rosetta2 (DE3), purified (told for SPOC); not shown: His6, N-terminal, cleaved
[3]; both partners purified
  fold reduction of binding against PHF3 SPOC WT: > 10 fold
[4]; both partners purified
  fold reduction of binding against PHF3 SPOC WT: > 10 fold
[5]; both partners purified
  fold reduction of binding against PHF3 SPOC WT: > 10 fold
